± gives the uncertainty stated by the source.
B1: Nanos homolog 2, residues 63 to 115; numbered along this chain, P60321 (parent)
chain: CNFCKHNGESRHVYSSHQLKTPDGVVVCPILRHYVCPVCGATGDQAHTLKYCP

Variants of: B1
Experiment: abundance fitness (aPCA) (normalised: wild type 0, dead -1); higher = more abundant; growth selection in yeast, the domain comes from the species named
Conditions: Homo sapiens

Variant	abundance fitness
Q18I	-0.259 ± 0.15
Q18V	0.065 ± 0.056
Q18K	0.133 ± 0.13
Q18N	0.097 ± 0.12
Q18G	-0.089 ± 0.068
Q18R	-0.114 ± 0.073
Q18S	-0.104 ± 0.082
Q18F	-0.079 ± 0.069
Q18Y	-0.149 ± 0.14
Q18T	-0.145 ± 0.13
Q18M	0.091 ± 0.11
Q18L	-0.033 ± 0.072
Q18P	-0.183 ± 0.074
Q18H	0.081 ± 0.17
Q18A	0.056 ± 0.1
Q18D	0.101 ± 0.13
D23M	-0.234 ± 0.093
D23I	-0.418 ± 0.13
D23L	-0.252 ± 0.088
D23H	-0.307 ± 0.21
D23R	-0.128 ± 0.071
D23T	-0.211 ± 0.13
D23G	-0.132 ± 0.084
D23C	-0.189 ± 0.072

Variant	abundance fitness
D23P	-0.378 ± 0.11
D23V	-0.22 ± 0.069
D23F	-0.371 ± 0.1
D23Q	-0.061 ± 0.072
D23W	-0.306 ± 0.11
D23N	-0.044 ± 0.096
D23Y	-0.119 ± 0.12
D23S	-0.141 ± 0.084
D23E	0.076 ± 0.1
K20P	-0.561 ± 0.097
K20E	-0.47 ± 0.2
K20F	-0.336 ± 0.14
K20H	-0.101 ± 0.077
K20L	-0.289 ± 0.069
K20Y	-0.455 ± 0.14
K20V	-0.204 ± 0.06
K20G	-0.523 ± 0.12
K20T	-0.118 ± 0.1
K20C	-0.071 ± 0.089
K20W	-0.569 ± 0.11
K20A	-0.111 ± 0.057
K20Q	-0.47 ± 0.16
K20N	-0.388 ± 0.16
K20M	-0.368 ± 0.12

Variant	abundance fitness
K20D	-0.118 ± 0.18
K20S	-0.168 ± 0.081
H17F	-0.86 ± 0.37
H17R	-0.644 ± 0.082
H17N	-0.711 ± 0.23
H17S	-0.674 ± 0.1
H17T	-0.442 ± 0.082
H17W	-1.14 ± 0.21
H17K	-0.6 ± 0.15
H17A	-0.626 ± 0.13
H17L	-0.756 ± 0.093
H17C	-0.737 ± 0.16
H17V	-0.769 ± 0.071
H17G	-0.618 ± 0.073
H17Q	-0.452 ± 0.083
H17E	-0.512 ± 0.14
H17P	-0.828 ± 0.27
H17I	-0.719 ± 0.25
G24N	0.113 ± 0.21
G24T	-0.563 ± 0.13
G24Q	-0.152 ± 0.064
G24E	-0.115 ± 0.079
G24W	-1.12 ± 0.27
G24Y	-0.895 ± 0.25

Variant	abundance fitness
G24H	-0.381 ± 0.18
G24L	-0.527 ± 0.064
G24F	-1.02 ± 0.26
G24K	-0.353 ± 0.094
G24D	-0.108 ± 0.065
G24I	-0.983 ± 0.47
G24C	-0.496 ± 0.19
G24P	-0.478 ± 0.16
G24R	-0.413 ± 0.092
G24M	-0.461 ± 0.14
G24S	-0.311 ± 0.092
G24V	-0.882 ± 0.081
T21G	-0.004 ± 0.11
H6L	-0.096 ± 0.088
H6T	-0.091 ± 0.094
H6E	-0.027 ± 0.091
H6Q	0.011 ± 0.12
H6W	-0.451 ± 0.11
H6K	0.158 ± 0.059
H6M	-0.047 ± 0.1
H6S	0.039 ± 0.072
H6C	-0.099 ± 0.11
H6P	-0.277 ± 0.12
H6G	-0.011 ± 0.056

Variant	abundance fitness
H6N	-0.003 ± 0.11
H6I	-0.062 ± 0.081
H6R	0.078 ± 0.05
H6A	-0.011 ± 0.07
H6F	-0.147 ± 0.11
H6D	-0.093 ± 0.1
S16G	-0.035 ± 0.073
S16A	-0.117 ± 0.063
S16Q	-0.042 ± 0.055
S16D	-0.08 ± 0.13
S16W	-0.557 ± 0.08
S16T	-0.335 ± 0.12
S16F	-0.594 ± 0.14
S16C	0.077 ± 0.14
S16M	-0.047 ± 0.1
S16L	-0.456 ± 0.074
S16V	-0.562 ± 0.095
S16E	-0.163 ± 0.099
S16K	-0.262 ± 0.11
S16I	-0.406 ± 0.17
S16P	-0.459 ± 0.16
S16R	-0.135 ± 0.067
S16H	-0.287 ± 0.12
S16N	0.023 ± 0.12

Variant	abundance fitness
S16Y	-0.489 ± 0.088
R11A	-0.034 ± 0.081
R11S	-0.047 ± 0.1
R11D	0.167 ± 0.095
R11W	-0.408 ± 0.093
R11V	-0.007 ± 0.091
R11T	0.08 ± 0.13
R11K	-0.317 ± 0.17
R11C	-0.497 ± 0.19
R11Q	-0.077 ± 0.18
R11H	-0.039 ± 0.19
R11P	0.172 ± 0.16
R11L	-0.049 ± 0.077
R11G	-0.084 ± 0.067
R11F	0.07 ± 0.16
R11M	-0.156 ± 0.12
R11I	0.063 ± 0.12
R11N	-0.131 ± 0.11
P22C	0.002 ± 0.15
P22V	-0.053 ± 0.069
P22A	-0.048 ± 0.09
P22H	-0.107 ± 0.19
P22Y	-0.121 ± 0.086
P22F	-0.383 ± 0.14

Variant	abundance fitness
P22N	-0.12 ± 0.22
P22T	-0.084 ± 0.092
P22M	-0.129 ± 0.076
P22K	0.306 ± 0.13
P22W	-0.321 ± 0.17
P22E	-0.184 ± 0.1
P22G	-0.041 ± 0.084
P22S	0.037 ± 0.069
P22D	-0.112 ± 0.1
P22L	-0.067 ± 0.096
P22I	-0.158 ± 0.13
P22R	-0.079 ± 0.075
E9F	-0.259 ± 0.072
E9L	-0.277 ± 0.079
E9C	0.065 ± 0.11
E9N	-0.153 ± 0.1
E9A	-0.103 ± 0.061
E9K	-0.007 ± 0.079
E9R	-0.125 ± 0.066
E9V	-0.189 ± 0.061
E9S	-0.26 ± 0.089
E9P	-0.25 ± 0.1
E9D	-0.298 ± 0.1
E9M	-0.116 ± 0.073

Variant	abundance fitness
E9W	-0.495 ± 0.15
E9T	-0.154 ± 0.087
E9G	-0.274 ± 0.056
E9Q	-0.116 ± 0.14
S10R	0.003 ± 0.076
S10L	-0.194 ± 0.059
S10D	-0.158 ± 0.14
S10G	0.012 ± 0.065
S10N	-0.198 ± 0.14
S10W	-0.442 ± 0.086
S10P	0.02 ± 0.078
S10Q	0.066 ± 0.11
S10Y	-0.328 ± 0.16
S10C	-0.321 ± 0.099
S10T	-0.248 ± 0.12
S10F	-0.251 ± 0.082
S10A	-0.172 ± 0.1
S10I	-0.149 ± 0.069
S10E	0.025 ± 0.1
S10V	-0.296 ± 0.083
S10H	0.022 ± 0.08
S10K	0.079 ± 0.11
V13L	-0.05 ± 0.074
V13D	-0.013 ± 0.13

Variant	abundance fitness
V13T	0.157 ± 0.085
V13P	-0.477 ± 0.13
V13R	-0.06 ± 0.065
V13I	-0.195 ± 0.15
V13S	-0.008 ± 0.069
V13W	-0.04 ± 0.11
V13N	0.064 ± 0.099
V13Q	-0.068 ± 0.1
V13E	-0.058 ± 0.094
V13H	-0.087 ± 0.22
V13K	0.113 ± 0.078
V13M	0.056 ± 0.092
V13A	-0.084 ± 0.077
V13C	0 ± 0.07
V13Y	-0.125 ± 0.11
V13G	-0.007 ± 0.087
H12Y	-0.101 ± 0.13
H12E	0.226 ± 0.063
H12V	-0.091 ± 0.08
H12G	0.056 ± 0.084
H12I	-0.043 ± 0.16
H12Q	-0.013 ± 0.11
H12M	-0.012 ± 0.078
H12F	-0.031 ± 0.14

Variant	abundance fitness
H12W	-0.148 ± 0.14
H12R	-0.049 ± 0.059
H12L	-0.036 ± 0.11
H12S	0.126 ± 0.066
H12C	-0.06 ± 0.066
H12K	0.096 ± 0.14
H12D	0.188 ± 0.085
H12T	0.035 ± 0.11
H12P	-0.069 ± 0.14
G8E	-0.119 ± 0.11
G8M	-0.137 ± 0.069
G8V	-0.306 ± 0.085
G8F	-0.202 ± 0.12
G8S	-0.08 ± 0.077
G8L	-0.23 ± 0.065
G8P	-0.343 ± 0.1
G8D	-0.223 ± 0.096
G8R	-0.063 ± 0.076
G8T	-0.359 ± 0.1
G8A	-0.196 ± 0.075
G8H	-0.092 ± 0.059
G8N	-0.161 ± 0.11
G8W	-0.342 ± 0.12
G8K	-0.174 ± 0.13

Variant	abundance fitness
G8Q	-0.084 ± 0.098
G8C	-0.313 ± 0.097
Y14G	-0.109 ± 0.076
Y14L	-0.125 ± 0.071
Y14W	0.208 ± 0.12
Y14T	0.011 ± 0.081
Y14I	-0.18 ± 0.15
Y14K	-0.133 ± 0.087
Y14Q	0.002 ± 0.11
Y14C	0.036 ± 0.11
Y14D	-0.213 ± 0.13
Y14E	-0.089 ± 0.099
Y14A	-0.165 ± 0.058
Y14M	-0.274 ± 0.11
Y14V	-0.011 ± 0.085
Y14R	-0.153 ± 0.074
Y14H	-0.226 ± 0.14
V25E	0.015 ± 0.067
V25D	-0.148 ± 0.1
V25C	-0.001 ± 0.089
V25F	0.166 ± 0.17
S15G	0.051 ± 0.098
S15Q	0.034 ± 0.11
S15V	-0.157 ± 0.073

Variant	abundance fitness
S15I	-0.258 ± 0.1
S15P	-0.326 ± 0.13
S15L	-0.002 ± 0.071
S15F	-0.135 ± 0.1
S15C	-0.158 ± 0.13
S15Y	0.068 ± 0.12
S15H	-0.095 ± 0.11
S15W	-0.333 ± 0.1
S15K	-0.099 ± 0.079
S15T	-0.595 ± 0.072
S15N	-0.034 ± 0.093
K5I	-0.054 ± 0.11
K5D	-0.401 ± 0.097
K5M	-0.165 ± 0.064
K5W	-0.4 ± 0.054
K5Q	-0.281 ± 0.11
K5L	-0.144 ± 0.046
K5F	-0.305 ± 0.11
K5A	-0.245 ± 0.057
K5G	-0.699 ± 0.05
K5N	-0.541 ± 0.12
K5P	-0.691 ± 0.048
K5E	-0.24 ± 0.083
K5T	-0.456 ± 0.097

Variant	abundance fitness
K5H	-0.3 ± 0.12
K5C	-0.249 ± 0.081
K5Y	-0.145 ± 0.08
K5S	-0.313 ± 0.048
L19W	-0.089 ± 0.16
L19I	-0.149 ± 0.24
L19M	-0.051 ± 0.12
L19E	-0.013 ± 0.12
L19D	-0.172 ± 0.18
L19T	-0.041 ± 0.13
L19V	-0.113 ± 0.078
L19C	-0.093 ± 0.15
L19Q	-0.329 ± 0.22
L19N	-0.277 ± 0.42
L19G	-0.292 ± 0.1
L19S	-0.186 ± 0.15
L19P	-0.508 ± 0.15
L19R	-0.372 ± 0.082
N7H	-0.036 ± 0.13
N7L	-0.311 ± 0.062
N7A	-0.213 ± 0.11
N7Q	-0.263 ± 0.11
N7M	0.173 ± 0.12
N7T	-0.122 ± 0.1

Variant	abundance fitness
N7G	-0.144 ± 0.1
N7C	-0.316 ± 0.097
N7R	-0.036 ± 0.083
N7K	0.021 ± 0.085
N7D	-0.513 ± 0.1
N7W	-0.47 ± 0.056
N7I	-0.432 ± 0.17
N7V	-0.364 ± 0.073
N7S	-0.054 ± 0.061
N7F	-0.241 ± 0.11
N7P	-0.764 ± 0.093
C4R	-0.933 ± 0.051
C4Q	-0.959 ± 0.21
C4L	-1 ± 0.15
C4K	-0.63 ± 0.19
C4S	-0.635 ± 0.06
C4P	-0.693 ± 0.067
C4V	-0.952 ± 0.088
C4Y	-0.874 ± 0.16
C4M	-1 ± 0.22
C4N	-0.694 ± 0.079
C4T	-0.879 ± 0.088

Source: the Human Domainome abundance scans (Beltran et al. 2025)
